Test results from US8715959B2, “Substitution mutant receptors and their use in a nuclear receptor-based inducible gene expression system” (priority 2001, dated 2014).

System: CfEcR-DEF
Experiment: GAL4/mutant CfEcR-DEF + VP16/LmUSP-EF GAL4-driven luciferase reporter transactivation in NIH3T3 cells
Type: cell-based, Choristoneura fumiferana
Conditions: for Fold increase over WT, 2.5 μM GS™-E: 2.5 μM GS™-E non-steroidal ligand; for Fold increase over WT, 2.5 μM GS™-E / Fold increase over WT, 2.5 μM PonA / Fold increase over WT, 10 nM GS™-E / Fold increase over WT, 10 nM PonA: NIH3T3 cells, relative to Gal4/wild-type CfEcR-DEF switch activity; for Fold increase over WT, 2.5 μM PonA: 2.5 μM PonA steroidal ligand; for Fold increase over WT, 10 nM GS™-E: 10 nM GS™-E non-steroidal ligand; for Fold increase over WT, 10 nM PonA: 10 nM PonA steroidal ligand
Experimental: DNAs corresponding to the various switch constructs outlined in Example 1, specifically switches 1.1-1.13, were transfected into mouse NIH3T3 cells (ATCC) or L57 cells (Dr. Peter Cherbas; Indiana University) as follows. Standard methods for culture and maintenance of the cells were followed. […] Superfect™ (Qiagen Inc.) was used for 3T3 cells and Lipofectamine™ (LifeTechnologies) was used for L57 cells as the transfection reagents. For 12-well plates, 4 μl of Superfect™ or Lipofectamine™ was mixed with 100 μl of growth medium. One μg of reporter construct and 0.25 μg of each receptor construct of the receptor pair to be analyzed were added to the transfection mix. […] The cells were harvested and reporter activity was assayed.
Cells were harvested 40 hours after adding ligands. […] Twenty μl of lysate were assayed.
Briefly, Applicants mutated amino acid residues predicted to be critical for ecdysteroid binding into alanine and created GAL4/mutantCfEcR-DEF cDNA gene expression cassettes as described in Example 1 above using the Quikchange PCR-mediated site-directed mutagenesis kit (Stratagene, La Jolla, Calif.). The mutated and the WT cDNAs were tested in GAL4-driven luciferase reporter assays.
DNAs corresponding to the various switch constructs outlined in Example 1, specifically switches 1.1-1.2, were transfected into mouse NIH3T3 cells (ATCC) as follows. […] Two μl of Superfect™ was mixed with 100 μl of growth medium and 50 ng of either GAL4/wild-type EcR or Gal4/mutant EcR cassette, 50 ng of VP16/LmUSP-EF and 200 ng of pFRLuc were added to the transfection mix. […] The cells were harvested and reporter activity was assayed as described above.

Molecule | Fold increase over WT, 2.5 μM GS™-E | Fold increase over WT, 2.5 μM PonA | non-steroid activity (summary of Table 10) (GS™-E, CfEcR-DEF point mutants) | steroid binding activity (summary of Table 10) (PonA, CfEcR-DEF point mutants) | Fold increase over WT, 10 nM GS™-E | Fold increase over WT, 10 nM PonA
T58A: CfEcR-DEF LBD substitution mutant, Threonine (T) to Alanine (A) (protein, listed as Choristoneura fumiferana) LTANQQFLIARLIWYQDGYEQPSDEDLKRITQTWQQADDENEESDTPFRQITEMTILAVQLIVEFAKGLPGFAKISQPDQITLLKACSSEVMMLRVARRYDAASDSVLFANNQAYTRDNYRKAGMAYVIEDLLHFCRCMYSMALDNIHYALLTAVVIFSDRPGLEQPQLVEEIQRYYLNTLRIYILNQLSGSARSSVIYGKILSILSELRTLGMQNSNMCISLKLKNRKLPPFLEEIWDV | 0.8 fold | 0.008 fold | not significantly affected | essentially eliminated |  | 
T52A: CfEcR-DEF LBD substitution mutant, Threonine (T) to Alanine (A) (protein, listed as Choristoneura fumiferana) LTANQQFLIARLIWYQDGYEQPSDEDLKRITQTWQQADDENEESDTPFRQIAEMTILTVQLIVEFAKGLPGFAKISQPDQITLLKACSSEVMMLRVARRYDAASDSVLFANNQAYTRDNYRKAGMAYVIEDLLHFCRCMYSMALDNIHYALLTAVVIFSDRPGLEQPQLVEEIQRYYLNTLRIYILNQLSGSARSSVIYGKILSILSELRTLGMQNSNMCISLKLKNRKLPPFLEEIWDV | 1.5 fold | 0.5 fold |  |  |  | 
T55A: CfEcR-DEF LBD substitution mutant, Threonine (T) to Alanine (A) (protein, listed as Choristoneura fumiferana) LTANQQFLIARLIWYQDGYEQPSDEDLKRITQTWQQADDENEESDTPFRQITEMAILTVQLIVEFAKGLPGFAKISQPDQITLLKACSSEVMMLRVARRYDAASDSVLFANNQAYTRDNYRKAGMAYVIEDLLHFCRCMYSMALDNIHYALLTAVVIFSDRPGLEQPQLVEEIQRYYLNTLRIYILNQLSGSARSSVIYGKILSILSELRTLGMQNSNMCISLKLKNRKLPPFLEEIWDV | 1.7 fold | 0.13 fold |  |  |  | 
V96T/V107I/R175E: CfEcR-DEF LBD triple mutant, V96T, V107I and R175E (protein, listed as Choristoneura fumiferana) LTANQQFLIARLIWYQDGYEQPSDEDLKRITQTWQQADDENEESDTPFRQITEMTILTVQLIVEFAKGLPGFAKISQPDQITLLKACSSEVMMLRTARRYDAASDSILFANNQAYTRDNYRKAGMAYVIEDLLHFCRCMYSMALDNIHYALLTAVVIFSDRPGLEQPQLVEEIQEYYLNTLRIYILNQLSGSARSSVIYGKILSILSELRTLGMQNSNMCISLKLKNRKLPPFLEEIWDV |  |  |  |  | 0.4 fold | 485.7 fold
T52L: CfEcR-DEF LBD substitution mutant, Threonine (T) to Leucine (L) (protein, listed as Choristoneura fumiferana) LTANQQFLIARLIWYQDGYEQPSDEDLKRITQTWQQADDENEESDTPFRQILEMTILTVQLIVEFAKGLPGFAKISQPDQITLLKACSSEVMMLRVARRYDAASDSVLFANNQAYTRDNYRKAGMAYVIEDLLHFCRCMYSMALDNIHYALLTAVVIFSDRPGLEQPQLVEEIQRYYLNTLRIYILNQLSGSARSSVIYGKILSILSELRTLGMQNSNMCISLKLKNRKLPPFLEEIWDV | 0.26 fold | 3.4 fold |  |  |  | 
V96A: CfEcR-DEF LBD substitution mutant, Valine (V) to Alanine (A) (protein, listed as Choristoneura fumiferana) LTANQQFLIARLIWYQDGYEQPSDEDLKRITQTWQQADDENEESDTPFRQITEMTILTVQLIVEFAKGLPGFAKISQPDQITLLKACSSEVMMLRAARRYDAASDSVLFANNQAYTRDNYRKAGMAYVIEDLLHFCRCMYSMALDNIHYALLTAVVIFSDRPGLEQPQLVEEIQRYYLNTLRIYILNQLSGSARSSVIYGKILSILSELRTLGMQNSNMCISLKLKNRKLPPFLEEIWDV | 0.35 fold | 408 fold |  |  |  | 
V96T: CfEcR-DEF LBD substitution mutant, Valine (V) to Threonine (T) (protein, listed as Choristoneura fumiferana) LTANQQFLIARLIWYQDGYEQPSDEDLKRITQTWQQADDENEESDTPFRQITEMTILTVQLIVEFAKGLPGFAKISQPDQITLLKACSSEVMMLRTARRYDAASDSVLFANNQAYTRDNYRKAGMAYVIEDLLHFCRCMYSMALDNIHYALLTAVVIFSDRPGLEQPQLVEEIQRYYLNTLRIYILNQLSGSARSSVIYGKILSILSELRTLGMQNSNMCISLKLKNRKLPPFLEEIWDV | 0.018 fold | 45 fold |  |  |  | 
V96M: CfEcR-DEF LBD substitution mutant, Valine (V) to Methionine (M) (protein, listed as Choristoneura fumiferana) LTANQQFLIARLIWYQDGYEQPSDEDLKRITQTWQQADDENEESDTPFRQITEMTILTVQLIVEFAKGLPGFAKISQPDQITLLKACSSEVMMLRMARRYDAASDSVLFANNQAYTRDNYRKAGMAYVIEDLLHFCRCMYSMALDNIHYALLTAVVIFSDRPGLEQPQLVEEIQRYYLNTLRIYILNQLSGSARSSVIYGKILSILSELRTLGMQNSNMCISLKLKNRKLPPFLEEIWDV | 122 fold | 3.37 fold |  |  |  | 
V107I: CfEcR-DEF LBD substitution mutant, Valine (V) to Isoleucine (protein, listed as Choristoneura fumiferana) LTANQQFLIARLIWYQDGYEQPSDEDLKRITQTWQQADDENEESDTPFRQITEMTILTVQLIVEFAKGLPGFAKISQPDQITLLKACSSEVMMLRVARRYDAASDSILFANNQAYTRDNYRKAGMAYVIEDLLHFCRCMYSMALDNIHYALLTAVVIFSDRPGLEQPQLVEEIQRYYLNTLRIYILNQLSGSARSSVIYGKILSILSELRTLGMQNSNMCISLKLKNRKLPPFLEEIWDV |  |  |  |  | 12.4 fold | 26.6 fold
R175E: CfEcR-DEF LBD substitution mutant, Arginine (R) to Glutamine (E) (protein, listed as Choristoneura fumiferana) LTANQQFLIARLIWYQDGYEQPSDEDLKRITQTWQQADDENEESDTPFRQITEMTILTVQLIVEFAKGLPGFAKISQPDQITLLKACSSEVMMLRVARRYDAASDSVLFANNQAYTRDNYRKAGMAYVIEDLLHFCRCMYSMALDNIHYALLTAVVIFSDRPGLEQPQLVEEIQEYYLNTLRIYILNQLSGSARSSVIYGKILSILSELRTLGMQNSNMCISLKLKNRKLPPFLEEIWDV |  |  |  |  | 22.0 fold | 11.3 fold
V107I/R175E: CfEcR-DEF LBD double mutant, V107I and R175E (protein, listed as Choristoneura fumiferana) LTANQQFLIARLIWYQDGYEQPSDEDLKRITQTWQQADDENEESDTPFRQITEMTILTVQLIVEFAKGLPGFAKISQPDQITLLKACSSEVMMLRVARRYDAASDSILFANNQAYTRDNYRKAGMAYVIEDLLHFCRCMYSMALDNIHYALLTAVVIFSDRPGLEQPQLVEEIQEYYLNTLRIYILNQLSGSARSSVIYGKILSILSELRTLGMQNSNMCISLKLKNRKLPPFLEEIWDV |  |  |  |  | 386.4 fold | 1194.4 fold
Y127E/R175E: CfEcR-DEF LBD double mutant, Y127E and R175E (protein, listed as Choristoneura fumiferana) LTANQQFLIARLIWYQDGYEQPSDEDLKRITQTWQQADDENEESDTPFRQITEMTILTVQLIVEFAKGLPGFAKISQPDQITLLKACSSEVMMLRVARRYDAASDSVLFANNQAYTRDNYRKAGMAEVIEDLLHFCRCMYSMALDNIHYALLTAVVIFSDRPGLEQPQLVEEIQEYYLNTLRIYILNQLSGSARSSVIYGKILSILSELRTLGMQNSNMCISLKLKNRKLPPFLEEIWDV |  |  |  |  | 622.8 fold | 42.2 fold
V107I/Y127E: CfEcR-DEF LBD double mutant, Valine (V) to Isoleucine (I) and Tyrosine (Y) to Glutamine (E) (protein, listed as Choristoneura fumiferana) LTANQQFLIARLIWYQDGYEQPSDEDLKRITQTWQQADDENEESDTPFRQITEMTILTVQLIVEFAKGLPGFAKISQPDQITLLKACSSEVMMLRVARRYDAASDSILFANNQAYTRDNYRKAGMAEVIEDLLHFCRCMYSMALDNIHYALLTAVVIFSDRPGLEQPQLVEEIQRYYLNTLRIYILNQLSGSARSSVIYGKILSILSELRTLGMQNSNMCISLKLKNRKLPPFLEEIWDV |  |  |  |  | 314.6 fold | 35.8 fold
